Source: patent US11685786 (MERUS N V, dated 2023)

Tests used:
[1] = biological target: T1, recombinant huCD137-Fc (R&D; cat. no. 838-4B) (human, UniProt Q07011 24-186); assay: competition ELISA: CD137L-muCD8 biotin on coated CD137-Fc, IgG 20 ug/ml
T1 construct: Bought; not shown: Fc of bought fusion protein, not described

[2] = biological target: T1, recombinant huCD137-Fc (R&D; cat. no. …); assay: CD137L blocking assay; competitor CD137L; format not told in the excerpt

Binder | % CD137L block [1] [%] | % CD137L block [2] [%]
MF6795 x MF6795 bivalent monospecific CD137 IgG (antibody, V domains shown, bivalent IgG; copies: 2 + 2) VH: EVQLVQSGAEVKKPGESLKISCKGSGYSFTSYWIGWVRQMPGKGLEWMGIIYPDDSDTRYSPSFQGQVTISADKSSSTAYLQWSSLKASDTAMYYCASFYTGIVGATGAFDVWGQGTTVTVSS VL: not shown | 32 | 32
MF6788 x MF6788 bivalent monospecific CD137 IgG (antibody, V domains shown, bivalent IgG; also called PB14193; copies: 2 + 2) VH: EVQLVQSGSELKKPGASVKVSCKASGYTFTNFAMNWVRQAPGQGLEWMGWINTNTGNPTYAQDFTGRFVFSLDTSGNTAYLQISSLKAEDTAVYYCARDWGLVAIGYFDYWGQGTLVTVSS VL: not shown | 55 | 55
MF6825 x MF6825 bivalent monospecific CD137 IgG (antibody, V domains shown, bivalent IgG; also called PB14162; copies: 2 + 2) VH: QITLKESGPTLVKPTQTLTLSCTFSGFSLSTSGMSVGWIRQPPGKALEWLALIYWNDDKYFSPSLKSRLTITKDTSKNQVVLTLTNMDPVDTATYYCAHTLWGSDDVFDVWGQGTMVTVSS VL: not shown | 89 | 89
MF6744 x MF6744 bivalent monospecific CD137 IgG (antibody, V domains shown, bivalent IgG; also called PG6744; PB14135; copies: 2 + 2) VH: EVQLVQSGAEVKKPGESLKISCKGSGYSFTSYWIGWVRQMPGKGLEWMGIIFPDDSDTRYSPSFQGQVTISADKSISTAYLQWSSLKPSDTAMYYCVRLGGYSGYAEDFVDFWGQGTLVTVSS VL: not shown | 67 | 67
MF6798 x MF6798 bivalent monospecific CD137 IgG (antibody, V domains shown, bivalent IgG; copies: 2 + 2) VH: QVQLVQSGSELKKPGASVKVSCRASGYTFTNFAMTWVRQAPGQGPEYMGWINTNTGNPTYAQGFTGRFVFSLDTSVNTAYLQISSLKAEDTAVYYCARDWASVMVRGDLDYWGQGTLVTVSS VL: not shown | 44 | 44
MF6783 x MF6783 bivalent monospecific CD137 IgG (antibody, V domains shown, bivalent IgG; also called PG6783; PB14143; copies: 2 + 2) VH: QVQLVQSGSELKKPGASVKVSCKASGYTFTNFAMNWVRRAPGQGLEWMGWINTNTGNPTYAQGFTGRFVFSLDTSVNTAYLQISSLKAEDTAVYYCARDWGVIGGHYMDVWGKGTTVTVSS VL: not shown | 44 | 44
MF6861 x MF6861 bivalent monospecific CD137 IgG (antibody, V domains shown, bivalent IgG; copies: 2 + 2) VH: QVQLVQSGAEVKKPGASVKVSCKASGYTFTSYGISWVRQAPGQGLEWMGWISAYNGNTNYAQKLQGRVTMTTDTSTSTAYMELRSLRSDDTAVYYCARDSDGYGPKAFDYWGQGTLVTVSS VL: not shown | 50 | 50
